Laboratory results from patent publication US20210347899A1 (BRIGHAM AND WOMEN S HOSPITAL, published 2021).

T1: full length human KLRG1 (human, UniProt Q96E93 1-195)
T1 construct: whole, on cells; also called CHO-human-KLRG1; CHO-hKLRG1
T1 sequence (looked up): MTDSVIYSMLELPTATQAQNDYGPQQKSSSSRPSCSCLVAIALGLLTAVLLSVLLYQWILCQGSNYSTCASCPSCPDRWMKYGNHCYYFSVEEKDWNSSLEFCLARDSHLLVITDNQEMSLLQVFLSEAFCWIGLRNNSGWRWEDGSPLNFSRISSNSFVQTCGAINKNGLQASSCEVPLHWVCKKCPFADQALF

T2: full length cynomolgus KLRG1 (cynomolgus, UniProt A0A2K5WAP9 1-186)
T2 construct: whole, on cells; also called Cyno KLRG1; CHO-cynomolgus-KLRG1
T2 sequence: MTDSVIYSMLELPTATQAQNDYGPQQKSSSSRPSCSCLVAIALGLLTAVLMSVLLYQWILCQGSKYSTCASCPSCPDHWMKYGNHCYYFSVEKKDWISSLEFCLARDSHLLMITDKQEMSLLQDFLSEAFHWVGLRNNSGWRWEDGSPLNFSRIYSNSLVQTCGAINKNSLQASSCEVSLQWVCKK

T3: cynomolgus KLRG1 ECD (cynomolgus, biotinylated in the OCTET assay, site not stated)
T3 construct: Recombinant proteins were made as FC fusion or as HIS tagged versions; also called cynonolgus KLRG1 ECD
T3 chain: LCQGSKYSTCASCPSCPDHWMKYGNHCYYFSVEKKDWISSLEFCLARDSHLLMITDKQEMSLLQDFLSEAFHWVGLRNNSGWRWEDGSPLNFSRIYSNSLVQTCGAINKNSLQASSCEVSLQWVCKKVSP

T4: human KLRG1 ECD (human, UniProt Q96E93 60-186, biotinylated in the OCTET assay, site not stated)
T4 construct: Recombinant proteins were made as FC fusion or as HIS tagged versions; also called Human-KLRG-ECD
T4 sequence: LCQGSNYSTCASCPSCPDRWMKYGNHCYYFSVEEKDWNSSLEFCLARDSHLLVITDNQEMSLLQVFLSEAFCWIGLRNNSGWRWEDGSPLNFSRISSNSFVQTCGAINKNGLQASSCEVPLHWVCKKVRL


What was measured:
[1] = molecular target: T1, full length human KLRG1; experiment: FACS, HIS tagged E-cadherin on CHO-hKLRG1 cells, anti-HIS detection
Experimental: (§1) The ability of monoclonal antibodies to inhibit E-cadherin/KLRG1 binding was measured by FACS. Binding of E-cadherin to CHO-hKLRG1 cells was first determined by incubating the KLRG1 expressing cells with varying concentration of HIS tagged recombinant E-cadherin and detected by FACS with anti-HIS detection antibody.

[2] = molecular target: T1, full length human KLRG1; experiment: cell-based or functional assay
[3] = molecular target: T1, full length human KLRG1; experiment: FACS on CHO-human-KLRG1 cells
Experimental: (§2) Binding of anti-KLRG1 monoclonal antibodies to cell expressed human and cynomolgus-KLRG1 was carried out by FACS. Chinese hamster ovary (CHO) cells were stably transfected to express full length human KLRG1 (CHO-human-KLRG1) and cynomolgus KLRG1 (CHO-cynomolgus-KLRG1).

[4] = molecular target: T2, full length cynomolgus KLRG1; experiment: FACS on CHO-cynomolgus-KLRG1 cells
Experimental: as §2

[5] = molecular target: T3, cynomolgus KLRG1 ECD; experiment: hybridoma screen for binding to KLRG1 ECD
[6] = molecular target: T1, full length human KLRG1; experiment: cell-based or functional assay; remark: listed apart in the source
[7] = molecular target: T1, full length human KLRG1; experiment: FACS competition, loss of HIS tagged E-cadherin binding to CHO-hKLRG1 cells
Experimental: as §1

[8] = molecular target: T1, full length human KLRG1; experiment: E-cadherin binding inhibition study, FACS on CHO-hKLRG1 cells; labels of Table 12 stand one row too low, value agrees with ABC_G1N02 (5.03) in Table 8
Experimental: as §1
(§3) IC50 values for each antibody were derived from E-cadherin binding inhibition studies and plotted against IFNγ production levels measured in CD8+ T cells IFNγ release assays.

[9] = molecular target: T4, human KLRG1 ECD; experiment: BLI (OCTET), biotinylated antigen on streptavidin sensor, 1:1 fit
Experimental: (§4) Binding kinetics of humanized antibodies for human and cynomolgus KLRG1 were determined by OCTET® measurement. OCTET® Systems use Bio-Layer Interferometry (BLI) technology to monitor the binding of proteins and other biomolecules to their partners directly in real time, providing analysis of kinetic binding constants. See https.//www.fortebio.com/bli-technology.html, the contents of which, including all links and sublinks associated therewith, is incorporated by reference herein in its entirety. The experimental set-up consists of immobilizing biotinylated recombinant antigen (Human-KLRG-ECD or cynomolgus-KLRG1-ECD) on streptavidin OCTET® sensor to produce antigen loaded sensors. The loaded sensors are the exposed to varying concentrations of each humanized antibody from 100 to 0.1 nM in the OCTET® instruments and data collected for 600 seconds to measure association kinetic (Kₒₙ) of the antibody/antigen complex. […] Kinetic binding parameters derived by this method are summarized in Table 9 for the three humanized antibodies.

[10] = molecular target: T3, cynomolgus KLRG1 ECD; experiment: as above
Experimental: as §4

[11] = molecular target: T1, full length human KLRG1; experiment: E-cadherin binding inhibition study, FACS on CHO-hKLRG1 cells; labels of Table 12 stand one row too low, value agrees with ABC_G1N07 in Table 8
Experimental: as §1, §3

| EC50 [1] | IFNγ released (pg/ml), Sample 1 [2] | IFNγ released (pg/ml), Sample 2 [2] | EC50 [3] | EC50 [4] | binding result [5] | IFNγ [6] | IC50 [7] | IC50 [8] | Kd [9] | koff [9] | kon [9] | Kd [10] | koff [10] | kon [10] | IC50 [11] | Binder |
| --- | --- | --- | --- | --- | --- | --- | --- | --- | --- | --- | --- | --- | --- | --- | --- | --- |
| 1000 nM | – | – | – | – | – | – | – | – | – | – | – | – | – | – | – | HIS tagged recombinant E-cadherin (ligand, also called human E-cadherin; not shown: HIS tag) DWVIPPISCPENEKGPFPKNLVQIKSNKDKEGKVFYSITGQGADTPPVGVFIIERETGWLKVTEPLDRERIATYTLFSHAVSSNGNAVEDPMEILITVTDQNDNKPEFTQEVFKGSVMEGALPGTSVMEVTATDADDDVNTYNAAIAYTILSQDPELPDKNMFTINRNTGVISVVTTGLDRESFPTYTLVVQAADLQGEGLSTTATAVITVTDTNDNPPIFNPTTYKGQVPENEANVVITTLKVTDADAPNTPAWEAVYTILNDDGGQFVVTTNPVNNDGILKTAKGLDFEAKQQYILHVAVTNVVPFEVSLTTSTATVTVDVLDVNEAPIFVPPEKRVEVSEDFGVGQEITSYTAQEPDTFMEQKITYRIWRDTANWLEINPDTGAISTRAELDREDFEHVKNSTYTALIIATDNGSPVATGTGTLLLILSDVNDNAPIPEPRTIFFCERNPKPQVINIIDADLPPNTSPFTAELTHGASANWTIQYNDPTQESIILKPKMALEVGDYKINLKLMDNQNKDQVTTLEVSVCDCEGAAGVCRKAQPVEAGLQIPA |
| – | – | – | – | – | – | – | – | – | < 0.0051 nM | < 1e-05 s⁻¹ | 1.97e+06 M⁻¹ s⁻¹ | 1.42 nM | 0.00125 s⁻¹ | 880000 M⁻¹ s⁻¹ | – | ABC_HG1N07 (antibody, IgG1, V domains shown) VH: QVQLVESGGGLVKPGGSLRLSCAASGFTFRNYAMSWIRQTPGKGLEWVATISESGNYNNYPDNVKGRLTISRDNAKNSLYLQMNSLKAEDTAVYYCVRDDWEGRAMDYWGQGTTVTVSS VL: DIQMTQSPSSLSASVGDRVTITCRASRDIGSSLNWYQQKPGGAPKRLIYATSSLDSGVPKRFSGSGSGTDFTLTISSLQSEDFATYYCLQYASSPWTFGQGTKVEIKR |
| – | – | – | – | – | – | – | – | – | 0.125 nM | 0.000287 s⁻¹ | 2.29e+06 M⁻¹ s⁻¹ | 0.0617 nM | 4.1e-05 s⁻¹ | 664000 M⁻¹ s⁻¹ | – | ABC_HG1N01 (antibody, IgG1, V domains shown) VH: QVILKESGPGLVKPTQTLTLTCTFSGFSLTTFGMGIGWIRQPPGKALEWLAHIWWNDDKSYNSALKSRLTISKDTSKNQVVLTMTNMDPVDTATYYCARTIYYGNYLTFYAMEHWGQGTTVTVSS VL: DILMTQSPLSLPVTPGEPASISCRSSQNIVHSNGNTYLEWYLQKPGQSPRLLIYKVSNRFSGVPDRFSGSGSGTDFTLKISRVEAEDVGVYYCFQGSHVPPTFGAGTKLELKR |
| – | – | – | – | – | – | – | – | – | 0.243 nM | 0.000681 s⁻¹ | 2.8e+06 M⁻¹ s⁻¹ | 0.0647 nM | 4.07e-05 s⁻¹ | 630000 M⁻¹ s⁻¹ | – | ABC_HG1N02 (antibody, IgG1, V domains shown) VH: QVTLKESGPGLVKPTQTLTLTCTFSGFSLSTFGMGVGWIRQPPGKALEWLAHIWWDDDKWYELALKSRLTISKDSSKNQVVLTMTNMDPVDTATYYCARVIYYGSRSAYYSMDYWGPGTTVTVSS VL: DILMTQSPLSLPVTPGEPASISCKSSQSIVHSNGHTYLEWYLQKPGQSPRLLIYKVSNRFSGVPDRFSGSGSGTDFTLKISRVEAEDVGVYYCFQGSHVPVTFGAGTKLELKR |

Further lines, the binder ahead of its results:

| Binder | EC50 [1] | IFNγ released (pg/ml), Sample 1 [2] | IFNγ released (pg/ml), Sample 2 [2] | EC50 [3] | EC50 [4] | binding result [5] | IFNγ [6] | IC50 [7] | IC50 [8] | Kd [9] | koff [9] | kon [9] | Kd [10] | koff [10] | kon [10] | IC50 [11] |
| --- | --- | --- | --- | --- | --- | --- | --- | --- | --- | --- | --- | --- | --- | --- | --- | --- |
| ABC_G1N03 (antibody, V domains shown, Mouse hybridoma monoclonal antibody) VH: QVHLQQSGPELVKPGASVKLSCKASGDTFTTYDITWVKQRPGQGLEWIGWIYPKDGRTQNSEKFKDKATLTVDTSSTTAYMELHSLTSEDSAVYFCARRGQFGPYFDHWGQGSTLTVSS VL: VIQMTQSSSFLSASLGGRVSITCRASDHIYNWLAWYQQKPGNAPRLLISGATSLETGIPSRFSGGGSGKDYTLTIISLQTEDIASYYCQQYWNTPPTFGGGTKVEIK | – | 934 pg/mL | 869 pg/mL | 1.3 nM | 1.06 nM | binds | – | – | – | – | – | – | – | – | – | – |
| ABC_G1N01 (antibody, V domains shown, Mouse hybridoma monoclonal antibody) VH: QVILKESGPGILQPSQTLSLTCSFSGFSLTTFGMGIGWIRHPSGKALEWLAHIWWNDDKSYNSALKSRLTISKDTSKNQVFLRLANVATADTATYYCARTIYYGNYLTFYAMEHWGQGTSVTVSS VL: DVLLTQTPLSLPVSLGDQASISCRSSQNIVHSNGNTYLEWYLLKPGQSPKLLIFKVSNRFSGVPDKFSGSGSGTDFTLKIRRVEAEDLGIYYCFQGSHVPPTFGAGTKLELK | – | 1190 pg/mL | 1220 pg/mL | 1.21 nM | 1.45 nM | binds | 1200 pg/mL | 12.2 nM | – | – | – | – | – | – | – | – |
| ABC_G1N06 (antibody, V domains shown, Mouse hybridoma monoclonal antibody) VH: QVQLKQSGPGLVQPSQSLSITCTVSGFSLTTHAVHWVRQSPGKGLDWLGVIWSGGNTDYNAAFISRLTISKDNSKSQVFFKMNSLQADDTAIYYCVRLLLPAMDYWGQGTSVTVSS VL: QIVLTQSPAIMSASLGERVTMTCTATSSVSSTYLHWYRQKPGSSPKLWIYSTSTLASGVPVRFRGSGSGTSYSLTISSMEAEDAATYYCHQYRRSPYTFGGGTKLEIK | – | 1020 pg/mL | 1140 pg/mL | 1.43 nM | 1.5 nM | binds | – | 41 nM | – | – | – | – | – | – | – | – |
| ABC_G1N04 (antibody, V domains shown, Mouse hybridoma monoclonal antibody) VH: DVQLVESGGGLVQPGGSRKLSCAASGFSFSTFGMHWVRQVPEKGLEWVAYISSGSYSIFYADSVKGRFTISRDNPKNTLFLQMTSLRSEDTAIYYCTRTRDSGSSPHYFDYWGQGTTVTVSS VL: not shown | – | 987 pg/mL | 1000 pg/mL | 29 nM | 0.47 nM | binds | – | – | – | – | – | – | – | – | – | – |
| ABC_G1N02 (antibody, V domains shown, Mouse hybridoma monoclonal antibody) VH: QVTLKESGPGILQPSQTLSLTCSVSGFSLSTFGMGVGWIRQPSGKGLEWLAHIWWDDDKWYELALKSRLTISKDSSKNQVFLKIANVDTADTATYFCARVIYYGSRSAYYSMDYWGPGTSVTVSS VL: DVLMTQTPLSLPVSLGAQASISCKSSQSIVHSNGHTYLEWYLQKPGQSPKILIYKVSNRFSGVPDRFSGSGSGTDFTLKISRVEAEDLGVYYCFQGSHVPVTFGAGTKLELK | – | 1440 pg/mL | 1290 pg/mL | 1.01 nM | 2.02 nM | binds | 1370 pg/mL | 5.03 nM | 5 nM | – | – | – | – | – | – | – |
| ABC_G1N07 (antibody, V domains shown, Mouse hybridoma monoclonal antibody) VH: EVQLVESGGGLVKPGGSLKLSCTASGFTFRNYAMSWVRQTPEKRLEWVATISESGNYNNYPDNVKGRLTISRDNAKNNLYLQMSLLKSEDTAMYYCVRDDWEGRAMDYWGQGTSVTVSS VL: GIQMTQSPSSLSASLGERVSLTCRASRDIGSSLNWLQQKPDGTIKRLIYATSSLDSGVPKRFSGSRSGTDYSLTISSLESEDFVDYFCLQYASSPWTFGGGTKLEIK | – | 1580 pg/mL | 1390 pg/mL | 0.94 nM | 0.98 nM | binds | 1480 pg/mL | 9.6 nM | – | – | – | – | – | – | – | 9.6 nM |
